Measured values from patent publication US20190241648A1 (STATEN BIOTECHNOLOGY B V, published 2019).
Ends that are not written are not given here.

Key:
Experiment in all cases: peptide microarray
ApoC3 peptide … K51L = biological target: T1, ApoC3 peptide … K51L (human, not fully specified; cyclic constrained)
T1 peptide: ARGWVTDGFSSLL
Procedure, shortened: (§1)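 Peptide microarrays of ApoC3-derived peptides incubated with antibody samples, then stained with goat anti-human IgG (Fc) DyLight680 (1:5000) and anti-HA DyLight800 (1:2000) control. Read-out by fluorescence scanning at intensities 7/7 (red/green); a secondary-only pre-stain checked background, HA frame peptides served as quality control.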

ApoC3 peptide … A39N = biological target: T2, ApoC3 peptide … A39N (human, cyclic constrained)
T2 peptide: NRGWVTDGFSSLK
Procedure, shortened: as §1

ApoC3 peptide … S48E = ApoC3 peptide … S48E (human, cyclic constrained)
Procedure, shortened: as §1

ApoC3 peptide … A39D = biological target: T3, ApoC3 peptide … A39D (human, cyclic constrained)
T3 peptide: DRGWVTDGFSSLK
Procedure, shortened: as §1

ApoC3 peptide … S49H = biological target: T4, ApoC3 peptide … S49H (human, cyclic constrained)
T4 peptide: ARGWVTDGFSHLK
Procedure, shortened: as §1

ApoC3 peptide … G46T = biological target: T5, ApoC3 peptide … G46T (human, thioether (positions not given here); also: cyclic constrained)
T5 peptide: ARGWVTDTFSSLK
Procedure, shortened: as §1

ApoC3 peptide … S48Y = biological target: T6, ApoC3 peptide … S48Y (human, not fully specified (bridges); also: cyclic constrained)
T6 peptide: ARGWVTDGFYSLK
Procedure, shortened: as §1

ApoC3 peptide … A39Q = biological target: T7, ApoC3 peptide … A39Q (human, not fully specified (bridges); also: cyclic constrained)
T7 peptide: QRGWVTDGFSSLK
Procedure, shortened: as §1

ApoC3 peptide … L50Y = biological target: T8, ApoC3 peptide … L50Y (human, not fully specified (bridges); also: cyclic constrained)
T8 peptide: ARGWVTDGFSSYK
Procedure, shortened: as §1

ApoC3 peptide … W42T = biological target: T9, ApoC3 peptide … W42T (human, not fully specified (bridges); also: cyclic constrained)
T9 peptide: ARGTVTDGFSSLK
Procedure, shortened: as §1

ApoC3 peptide … K51W = biological target: T10, ApoC3 peptide … K51W (human, not fully specified; cyclic constrained)
T10 peptide: ARGWVTDGFSSLW
Procedure, shortened: as §1

ApoC3 peptide … G41I = biological target: T11, ApoC3 peptide … G41I (human, also: cyclic constrained)
T11 peptide: ARIWVTDGFSSLK
Procedure, shortened: as §1

ApoC3 peptide … R40P = biological target: T12, ApoC3 peptide … R40P (human, not fully specified (bridges); also: cyclic constrained)
T12 peptide: APGWVTDGFSSLK
Procedure, shortened: as §1

ApoC3 peptide … W42Y = biological target: T13, ApoC3 peptide … W42Y (human, not fully specified (bridges); also: cyclic constrained)
T13 peptide: ARGYVTDGFSSLK
Procedure, shortened: as §1

ApoC3 peptide … G46Y = biological target: T14, ApoC3 peptide … G46Y (human, thioether (positions not given here); also: cyclic constrained)
T14 peptide: ARGWVTDYFSSLK
Procedure, shortened: as §1

ApoC3 peptide … D45P = biological target: T15, ApoC3 peptide … D45P (human, cyclic constrained)
T15 peptide: ARGWVTPGFSSLK
Procedure, shortened: as §1

ApoC3 peptide … L50D = biological target: T16, ApoC3 peptide … L50D (human, not fully specified; cyclic constrained)
T16 peptide: ARGWVTDGFSSDK
Procedure, shortened: as §1

ApoC3 peptide … A39E = biological target: T17, ApoC3 peptide … A39E (human, cyclic constrained)
T17 peptide: ERGWVTDGFSSLK
Procedure, shortened: as §1

ApoC3 peptide … T44K = biological target: T18, ApoC3 peptide … T44K (human, not fully specified (bridges); also: cyclic constrained)
T18 peptide: ARGWVKDGFSSLK
Procedure, shortened: as §1

ApoC3 peptide … K51N = biological target: T19, ApoC3 peptide … K51N (human, not fully specified; cyclic constrained)
T19 peptide: ARGWVTDGFSSLN
Procedure, shortened: as §1

ApoC3 peptide … D45F = biological target: T20, ApoC3 peptide … D45F (human, not fully specified (bridges); also: cyclic constrained)
T20 peptide: ARGWVTFGFSSLK
Procedure, shortened: as §1

ApoC3 peptide … F47M = biological target: T21, ApoC3 peptide … F47M (human, not fully specified (bridges); also: cyclic constrained)
T21 peptide: ARGWVTDGMSSLK
Procedure, shortened: as §1

ApoC3 peptide … F47K = biological target: T22, ApoC3 peptide … F47K (human, not fully specified (bridges); also: cyclic constrained)
T22 peptide: ARGWVTDGKSSLK
Procedure, shortened: as §1

ApoC3 peptide … V43H = biological target: T23, ApoC3 peptide … V43H (human, not fully specified; cyclic constrained)
T23 peptide: ARGWHTDGFSSLK
Procedure, shortened: as §1

ApoC3 peptide … T44F = biological target: T24, ApoC3 peptide … T44F (human, not fully specified (bridges); also: cyclic constrained)
T24 peptide: ARGWVFDGFSSLK
Procedure, shortened: as §1

ApoC3 peptide … S49K = biological target: T25, ApoC3 peptide … S49K (human, cyclic constrained)
T25 peptide: ARGWVTDGFSKLK
Procedure, shortened: as §1

ApoC3 peptide … S49W = biological target: T26, ApoC3 peptide … S49W (human, not fully specified (bridges); also: cyclic constrained)
T26 peptide: ARGWVTDGFSWLK
Procedure, shortened: as §1

ApoC3 peptide … G41L = biological target: T27, ApoC3 peptide … G41L (human, also: cyclic constrained)
T27 peptide: ARLWVTDGFSSLK
Procedure, shortened: as §1

ApoC3 peptide … D45S = biological target: T28, ApoC3 peptide … D45S (human, cyclic constrained)
T28 peptide: ARGWVTSGFSSLK
Procedure, shortened: as §1

ApoC3 peptide … W42R = biological target: T29, ApoC3 peptide … W42R (human, not fully specified (bridges); also: cyclic constrained)
T29 peptide: ARGRVTDGFSSLK
Procedure, shortened: as §1

ApoC3 peptide … A39I = biological target: T30, ApoC3 peptide … A39I (human, cyclic constrained)
T30 peptide: IRGWVTDGFSSLK
Procedure, shortened: as §1

% of binding to wild-type peptide (ApoC3 peptide … K51L): 0.33% | % of binding to wild-type peptide (ApoC3 peptide … A39N): 103% | % of binding to wild-type peptide (ApoC3 peptide … S48E): 290% | % of binding to wild-type peptide (ApoC3 peptide … A39D): 50.7% | % of binding to wild-type peptide (ApoC3 peptide … S49H): 0.56% | % of binding to wild-type peptide (ApoC3 peptide … G46T): 0% | % of binding to wild-type peptide (ApoC3 peptide … S48Y): 5.83% | % of binding to wild-type peptide (ApoC3 peptide … A39Q): 104% | % of binding to wild-type peptide (ApoC3 peptide … L50Y): 0.38% | % of binding to wild-type peptide (ApoC3 peptide … W42T): 186% | % of binding to wild-type peptide (ApoC3 peptide … K51W): 0% | % of binding to wild-type peptide (ApoC3 peptide … G41I): 5.33% | % of binding to wild-type peptide (ApoC3 peptide … R40P): 52.7% | % of binding to wild-type peptide (ApoC3 peptide … W42Y): 149% | % of binding to wild-type peptide (ApoC3 peptide … G46Y): 0% | % of binding to wild-type peptide (ApoC3 peptide … D45P): 0% | % of binding to wild-type peptide (ApoC3 peptide … L50D): 0% | % of binding to wild-type peptide (ApoC3 peptide … A39E): 98.9% | % of binding to wild-type peptide (ApoC3 peptide … T44K): 0% | % of binding to wild-type peptide (ApoC3 peptide … K51N): 2.6% | % of binding to wild-type peptide (ApoC3 peptide … D45F): 0% | % of binding to wild-type peptide (ApoC3 peptide … F47M): 0% | % of binding to wild-type peptide (ApoC3 peptide … F47K): 0.12% | % of binding to wild-type peptide (ApoC3 peptide … V43H): 14.6% | % of binding to wild-type peptide (ApoC3 peptide … T44F): 0% | % of binding to wild-type peptide (ApoC3 peptide … S49K): 3.23% | % of binding to wild-type peptide (ApoC3 peptide … S49W): 0.27% | % of binding to wild-type peptide (ApoC3 peptide … G41L): 6.27% | % of binding to wild-type peptide (ApoC3 peptide … D45S): 20.8% | % of binding to wild-type peptide (ApoC3 peptide … W42R): 141% | % of binding to wild-type peptide (ApoC3 peptide … A39I): 52.3%
B1: anti-ApoC3 antibody 14C7 (antibody, V domains shown)
VH: QVQVQESGPGLVKPSQTLSLTCTVSGGSITTNSYYWSWIRQPPGKGLEWMGAIDYSGDTYYSPSLKSRTSISRDTSKNQFTLQLTSVTPEDTAVYYCVSRIPTGEYWGQGTQVTVSS
VL: QTVVTQEPSLSVSPGGTVTLTCGLNSGSVTSSNYPDWYQQTPGQAPRLLIYNTNSRHSGVPSRFSGSISGNKAALTITGAQPEDEADYYCALYMGSDSVVFGGGTHLTVL
notes: it was detected with goat anti-human IgG (Fc); also called mAb 14C7; llama antibody 14C7
